FRAP mobile fractions in PKA-Tau:14-3-3ζ condensates and Kd data for one substance are collected here from PMC12313985.

Assay [1] addresses PKA-phosphorylated full-length human Tau (PKA-Tau) (human) (UniProt P10636).
Assay [2] deals with Fluorescein (FITC)-labelled bi-phospho Tau peptide pS2 (Tau^210–222-…-Tau^318–331) (human). The experiment in a line: fluorescence polarisation; 14-3-3ζ titrated (twofold series from 400 μM) into 10 nM fluorescein-labelled peptide; 10 mM HEPES pH 7.4, 150 mM NaCl, 50 µM TCEP, 0.1% Tween20, 0.1% BSA; room temperature; 4PL fit.

pKd: −log10 of the molar value.

Sequence of Fluorescein (FITC)-labelled bi-phospho Tau peptide pS2 (Tau^210–222-…-Tau^318–331) (human) (peptide, as listed by the source): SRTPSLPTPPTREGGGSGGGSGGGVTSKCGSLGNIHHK
Sequence of PKA-phosphorylated full-length human Tau (PKA-Tau) (human) (P10636 other isoform, or with tags, fused parts or gaps): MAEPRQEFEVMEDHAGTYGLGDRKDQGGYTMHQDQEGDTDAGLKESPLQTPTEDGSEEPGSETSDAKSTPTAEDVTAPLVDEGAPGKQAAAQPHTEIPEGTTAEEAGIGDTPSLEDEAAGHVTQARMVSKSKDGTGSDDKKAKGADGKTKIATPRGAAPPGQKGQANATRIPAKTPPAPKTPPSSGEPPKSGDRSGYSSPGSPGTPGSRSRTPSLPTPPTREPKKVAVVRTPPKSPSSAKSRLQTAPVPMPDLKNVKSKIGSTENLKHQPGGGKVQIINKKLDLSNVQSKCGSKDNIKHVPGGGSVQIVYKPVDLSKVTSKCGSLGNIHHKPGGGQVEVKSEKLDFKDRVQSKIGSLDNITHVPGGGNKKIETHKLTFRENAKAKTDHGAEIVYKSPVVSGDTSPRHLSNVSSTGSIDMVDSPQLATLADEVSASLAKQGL

The substance “14-3-3 protein zeta (14-3-3ζ) (from UniProt P63104 1-245) (natural protein)” registered an FRAP mobile fractions in PKA-Tau:14-3-3ζ condensates in assay [1] of 50%. The pKd in assay [2] was 6.00.

For orientation: pKd means the negative decadic logarithm of the Kd, by convention in mol/L. A low value points to a large Kd.
